The values that follow come from US20240025959A1 (UNIVERSITY OF SOUTHERN CALIFORNIA, published 2024).

For assay [1], the target named is T1, ULK1 (human, UniProt O75385 1-1050).
T1 construct: also called HA-ULK1
T1 sequence (looked up): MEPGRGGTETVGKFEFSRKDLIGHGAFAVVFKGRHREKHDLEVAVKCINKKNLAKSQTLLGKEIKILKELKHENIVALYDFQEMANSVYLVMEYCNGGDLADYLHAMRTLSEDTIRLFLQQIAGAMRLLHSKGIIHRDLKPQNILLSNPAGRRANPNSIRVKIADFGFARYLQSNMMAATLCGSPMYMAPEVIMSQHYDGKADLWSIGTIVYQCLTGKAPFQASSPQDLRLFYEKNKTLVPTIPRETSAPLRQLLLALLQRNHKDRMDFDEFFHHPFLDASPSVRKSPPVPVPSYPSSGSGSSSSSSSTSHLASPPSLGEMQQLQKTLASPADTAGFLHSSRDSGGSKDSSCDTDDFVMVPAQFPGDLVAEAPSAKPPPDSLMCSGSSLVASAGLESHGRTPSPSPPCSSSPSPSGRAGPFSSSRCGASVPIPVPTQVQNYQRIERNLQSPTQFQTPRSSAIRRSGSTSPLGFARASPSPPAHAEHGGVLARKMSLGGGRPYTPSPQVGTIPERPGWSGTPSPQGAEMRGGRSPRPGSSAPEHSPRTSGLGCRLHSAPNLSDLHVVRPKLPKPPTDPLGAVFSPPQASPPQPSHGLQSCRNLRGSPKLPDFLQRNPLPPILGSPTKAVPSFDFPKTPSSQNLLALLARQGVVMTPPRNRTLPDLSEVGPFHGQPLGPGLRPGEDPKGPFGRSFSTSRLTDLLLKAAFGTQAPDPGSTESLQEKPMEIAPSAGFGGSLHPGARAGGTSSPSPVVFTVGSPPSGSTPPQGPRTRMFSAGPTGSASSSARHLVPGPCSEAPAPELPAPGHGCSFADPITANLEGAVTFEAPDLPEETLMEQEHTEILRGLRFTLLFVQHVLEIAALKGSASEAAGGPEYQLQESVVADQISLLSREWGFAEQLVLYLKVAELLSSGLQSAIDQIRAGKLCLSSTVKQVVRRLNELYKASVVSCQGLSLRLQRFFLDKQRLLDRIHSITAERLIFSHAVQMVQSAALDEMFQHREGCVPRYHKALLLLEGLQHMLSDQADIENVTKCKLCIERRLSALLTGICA
Nature of the assay: co-IP with anti-Flag beads and immunoblot; 293T cells transfected with the indicated Flag-tagged plasmid (FIG. 12B).
Procedure: Data are representative of at least three independent experiments.
The secondary antibody (Veriblot for IP detection reagent HRP) that only recognized native IgG but not denatured IgG was applied for immunoblotting of proteins in immunoprecipitates. For immunoprecipitation of Flag-tagged proteins, cell lysates were incubated with anti-Flag beads (Sigma) at 4° C. overnight. The beads were washed four times with RIPA lysis buffer, and immunoprecipitates were eluted with 2×SDS loading buffer. Immunoblotting was performed by loading the samples on SDS-PAGE gels, conducting electrophoresis, transferring the samples to PVDF membranes (Bio-Rad), and then incubating the membranes with the indicated antibodies. For all immunoblots, the LumiGLO Chemiluminescent Substrate System from KPL (Gaithersburg, MD) was used for protein detection.

For assay [2], the target named is T2, Beclin 2 (human, full length) (human, UniProt A8MW95 1-431).
T2 construct: All tagged and endogenous human forms are kept under this one id; the form used is named under assay; also called BECN2; Flag-Beclin 2
T2 sequence: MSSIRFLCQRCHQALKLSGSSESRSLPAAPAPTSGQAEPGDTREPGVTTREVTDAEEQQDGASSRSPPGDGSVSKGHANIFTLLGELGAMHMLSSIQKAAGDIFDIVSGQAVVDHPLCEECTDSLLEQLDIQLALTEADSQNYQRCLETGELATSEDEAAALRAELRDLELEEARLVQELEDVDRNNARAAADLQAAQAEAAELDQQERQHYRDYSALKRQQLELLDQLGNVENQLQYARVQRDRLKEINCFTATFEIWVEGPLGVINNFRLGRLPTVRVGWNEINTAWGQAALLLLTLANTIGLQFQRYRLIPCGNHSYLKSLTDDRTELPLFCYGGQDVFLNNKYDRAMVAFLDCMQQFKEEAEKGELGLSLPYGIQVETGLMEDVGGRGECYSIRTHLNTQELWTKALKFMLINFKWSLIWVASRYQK
Put plainly: co-IP with anti-Flag beads and immunoblot; 293T cells co-transfected with HA-Beclin 2 and a Flag-tagged plasmid (FIG. 13C).

For assay [3], the target named is T3, AIM2 (human, full length) (human, UniProt O14862 1-343).
T3 construct: also called Flag-AIM2; GFP-AIM2
T3 sequence (looked up): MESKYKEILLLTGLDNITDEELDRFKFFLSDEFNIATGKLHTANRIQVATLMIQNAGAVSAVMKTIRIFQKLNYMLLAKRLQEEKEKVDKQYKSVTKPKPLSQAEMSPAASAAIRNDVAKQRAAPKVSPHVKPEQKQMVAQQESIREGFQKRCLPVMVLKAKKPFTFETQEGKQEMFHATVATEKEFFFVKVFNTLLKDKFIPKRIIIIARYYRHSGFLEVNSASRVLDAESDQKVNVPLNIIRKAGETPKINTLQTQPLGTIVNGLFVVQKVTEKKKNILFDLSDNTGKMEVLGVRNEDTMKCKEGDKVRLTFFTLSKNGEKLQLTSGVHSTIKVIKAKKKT
Nature of the assay: co-IP with anti-Flag beads; HA-tagged Beclin 2 truncations co-transfected with Flag-AIM2 (FIG. 25K).
Procedure: (§1) Cell lysates were immunoprecipitated with anti-Flag beads and immunoblotted using indicated antibodies. […] Cell lysates were immunoprecipitated with anti-Flag beads and immunoblotted using indicated antibodies.
(§2) Whole cell lysates obtained 24 h post-transfection or via ligand stimulation were obtained using RIPA lysis buffer and shook on ice for 15 min. The HEK293T cell lysates were immunoprecipitated with anti-Flag conjugated beads (BioLegend) at 4° C. overnight.

In assay [4] the target is T4, NLRP3 (human, full length) (human, UniProt Q96P20 1-1036, limits assumed).
T4 construct: also called Flag-NLRP3; HA-NLRP3
T4 sequence (Q96P20 whole entry): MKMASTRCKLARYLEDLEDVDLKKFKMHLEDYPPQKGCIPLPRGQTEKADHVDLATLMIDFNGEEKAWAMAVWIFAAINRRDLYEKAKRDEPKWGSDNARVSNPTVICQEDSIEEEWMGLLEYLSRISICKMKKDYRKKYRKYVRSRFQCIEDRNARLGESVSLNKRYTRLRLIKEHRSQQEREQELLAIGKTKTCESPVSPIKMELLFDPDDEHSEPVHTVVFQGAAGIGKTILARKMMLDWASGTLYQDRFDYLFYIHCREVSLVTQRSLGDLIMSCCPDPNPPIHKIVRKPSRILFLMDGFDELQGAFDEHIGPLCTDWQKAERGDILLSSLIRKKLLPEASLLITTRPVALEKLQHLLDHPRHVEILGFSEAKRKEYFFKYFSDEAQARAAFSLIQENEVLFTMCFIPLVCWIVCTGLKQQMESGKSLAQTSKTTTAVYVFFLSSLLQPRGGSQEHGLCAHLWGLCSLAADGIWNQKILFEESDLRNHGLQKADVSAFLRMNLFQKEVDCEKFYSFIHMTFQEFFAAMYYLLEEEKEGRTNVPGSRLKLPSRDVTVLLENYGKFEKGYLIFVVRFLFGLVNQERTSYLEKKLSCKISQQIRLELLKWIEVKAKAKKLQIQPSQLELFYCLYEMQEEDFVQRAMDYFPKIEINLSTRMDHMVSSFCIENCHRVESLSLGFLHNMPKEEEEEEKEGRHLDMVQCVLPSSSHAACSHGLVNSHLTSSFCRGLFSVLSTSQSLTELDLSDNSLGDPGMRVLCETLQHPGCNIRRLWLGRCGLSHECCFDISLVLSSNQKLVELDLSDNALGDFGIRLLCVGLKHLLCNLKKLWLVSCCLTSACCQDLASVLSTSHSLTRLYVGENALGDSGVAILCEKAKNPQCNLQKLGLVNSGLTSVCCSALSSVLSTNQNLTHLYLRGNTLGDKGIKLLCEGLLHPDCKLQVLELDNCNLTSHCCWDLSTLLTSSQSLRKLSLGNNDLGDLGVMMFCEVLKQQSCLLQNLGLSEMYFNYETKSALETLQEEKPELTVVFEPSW
Nature of the assay: co-IP with anti-Flag beads; HA-tagged Beclin 2 truncations co-transfected with Flag-NLRP3 (FIG. 25L).
Procedure: as §1, §2

For assay [5], the target named is T2, Beclin 2 (human, full length). Put plainly: co-IP with anti-Flag beads and immunoblot; HEK293T cells co-transfected with HA-Beclin 2 and Flag-tagged SNARE or RAB proteins (FIG. 32A).
Procedure: Whole cell lysates obtained 24 h post-transfection or via ligand stimulation were obtained using RIPA lysis buffer and shook on ice for 15 min. The HEK293T cell lysates were immunoprecipitated with anti-Flag conjugated beads (BioLegend) at 4° C. overnight. […] The beads were washed five times with RIPA lysis buffer, and immunoprecipitates were eluted with 2×SDS loading buffer and subjected to SDS-PAGE gel electrophoresis, followed by immunoblotting. The secondary antibody (Veriblot for IP detection, HRP-conjugated) that only recognized native IgG but not denatured IgG was applied for immunoblotting of endogenous proteins in immunoprecipitates.

B1: ATG9A (human) (other, UniProt Q7Z3C6 1-839, looked up)
chain: MAQFDTEYQRLEASYSDSPPGEEDLLVHVAEGSKSPWHHIENLDLFFSRVYNLHQKNGFTCMLIGEIFELMQFLFVVAFTTFLVSCVDYDILFANKMVNHSLHPTEPVKVTLPDAFLPAQVCSARIQENGSLITILVIAGVFWIHRLIKFIYNICCYWEIHSFYLHALRIPMSALPYCTWQEVQARIVQTQKEHQICIHKRELTELDIYHRILRFQNYMVALVNKSLLPLRFRLPGLGEAVFFTRGLKYNFELILFWGPGSLFLNEWSLKAEYKRGGQRLELAQRLSNRILWIGIANFLLCPLILIWQILYAFFSYAEVLKREPGALGARCWSLYGRCYLRHFNELEHELQSRLNRGYKPASKYMNCFLSPLLTLLAKNGAFFAGSILAVLIALTIYDEDVLAVEHVLTTVTLLGVTVTVCRSFIPDQHMVFCPEQLLRVILAHIHYMPDHWQGNAHRSQTRDEFAQLFQYKAVFILEELLSPIVTPLILIFCLRPRALEIIDFFRNFTVEVVGVGDTCSFAQMDVRQHGHPQWLSAGQTEASVYQQAEDGKTELSLMHFAITNPGWQPPRESTAFLGFLKEQVQRDGAAASLAQGGLLPENALFTSIQSLQSESEPLSLIANVVAGSSCRGPPLPRDLQGSRHRAEVASALRSFSPLQPGQAPTGRAHSTMTGSGVDARTASSGSSVWEGQLQSLVLSEYASTEMSLHALYMHQLHKQQAQAEPERHVWHRRESDESGESAPDEGGEGARAPQSIPRSASYPCAAPRPGAPETTALHGGFQRRYGGITDPGTVPRVPSHFSRLPLGGWAEDGQSASRHPEPVPEEGSEDELPPQVHKV
notes: Transmembrane protein; co-IP from RIPA lysates; Tagged and endogenous human forms kept under one id; also called Flag-ATG9A; HA-ATG9A
With B1, the binding result in assay [1] was “binds”.

B2: VAMP8 (other, human, UniProt Q9BV40 1-100, looked up)
chain: MEEASEGGGNDRVRNLQSEVEGVKNIMTQNVERILARGENLEHLRNKTEDLEATSEHFKTTSQKVARKFWWKNVKMIVLICVIVFIIILFIVLFATGAFS
As to B2, in assay [2], the binding result is “binds”.

B3: RAB8A (other, human, UniProt P61006 1-207, looked up)
chain: MAKTYDYLFKLLLIGDSGVGKTCVLFRFSEDAFNSTFISTIGIDFKIRTIELDGKRIKLQIWDTAGQERFRTITTAYYRGAMGIMLVYDITNEKSFDNIRNWIRNIEEHASADVEKMILGNKCDVNDKRQVSKERGEKLALDYGIKFMETSAKANINVENAFFTLARDIKAKMDKKLEGNSPQGSNQGVKITPDQQKRSSFFRCVLL
For the molecule B3, the binding result in assay [2] is “binds”.

B4: Beclin 2/ECD (ECD domain alone) (other)
chain: INCFTATFEIWVEGPLGVINNFRLGRLPTVRVGWNEINTAWGQAALLLLTLANTIGLQFQRYRLIPCGNHSYLKSLTDDRTELPLFCYGGQDVFLNNKYDRAMVAFLDCMQQFKEEAEKGELGLSLPYGIQVETGLMEDVGGRGECYSIRTHLNTQELWTKALKFMLINFKWSLIWVASRYQK
notes: HA-tagged truncation
For B4, the binding result in assay [3] and in assay [4] was “no binding” each time.

B5: VAMP7 (other, human, UniProt P51809 1-220, looked up)
chain: MAILFAVVARGTTILAKHAWCGGNFLEVTEQILAKIPSENNKLTYSHGNYLFHYICQDRIVYLCITDDDFERSRAFNFLNEIKKRFQTTYGSRAQTALPYAMNSEFSSVLAAQLKHHSENKGLDKVMETQAQVDELKGIMVRNIDLVAQRGERLELLIDKTENLVDSSVTFKTTSRNLARAMCMKNLKLTIIIIIVSIVFIYIIVSPLCGGFTWPSCVKK
B5: the binding result in assay [5] is given as “binds”.

B6: STX8 (other, human, UniProt Q9UNK0 1-236, looked up)
chain: MAPDPWFSTYDSTCQIAQEIAEKIQQRNQYERKGEKAPKLTVTIRALLQNLKEKIALLKDLLLRAVSTHQITQLEGDRRQNLLDDLVTRERLLLASFKNEGAEPDLIRSSLMSEEAKRGAPNPWLFEEPEETRGLGFDEIRQQQQKIIQEQDAGLDALSSIISRQKQMGQEIGNELDEQNEIIDDLANLVENTDEKLRNETRRVNMVDRKSASCGMIMVILLLLVAIVVVAVWPTN
Turning to B6, the binding result in assay [2] is “binds”.

B7: STX7 (other, human, UniProt O15400 1-261, looked up)
chain: MSYTPGVGGDPAQLAQRISSNIQKITQCSVEIQRTLNQLGTPQDSPELRQQLQQKQQYTNQLAKETDKYIKEFGSLPTTPSEQRQRKIQKDRLVAEFTTSLTNFQKVQRQAAEREKEFVARVRASSRVSGSFPEDSSKERNLVSWESQTQPQVQVQDEEITEDDLRLIHERESSIRQLEADIMDINEIFKDLGMMIHEQGDVIDSIEANVENAEVHVQQANQQLSRAADYQRKSRKTLCIIILILVIGVAIISLIIWGLNH
Regarding B7, in assay [2], the binding result is recorded as “binds”.

B8: Beclin 2/ΔECD (ECD domain deletion fragment, residues 1-248) (other)
chain: MSSIRFLCQRCHQALKLSGSSESRSLPAAPAPTSGQAEPGDTREPGVTTREVTDAEEQQDGASSRSPPGDGSVSKGHANIFTLLGELGAMHMLSSIQKAAGDIFDIVSGQAVVDHPLCEECTDSLLEQLDIQLALTEADSQNYQRCLETGELATSEDEAAALRAELRDLELEEARLVQELEDVDRNNARAAADLQAAQAEAAELDQQERQHYRDYSALKRQQLELLDQLGNVENQLQYARVQRDRLKE
notes: HA-tagged truncation; also called Beclin 2/AECD
As to B8, the binding result in assay [3] and in assay [4] was “no binding” throughout.

B9: STX6 (other, human, UniProt O43752 1-255, looked up)
chain: MSMEDPFFVVKGEVQKAVNTAQGLFQRWTELLQDPSTATREEIDWTTNELRNNLRSIEWDLEDLDETISIVEANPRKFNLDATELSIRKAFITSTRQVVRDMKDQMSTSSVQALAERKNRQALLGDSGSQNWSTGTTDKYGRLDRELQRANSHFIEEQQAQQQLIVEQQDEQLELVSGSIGVLKNMSQRIGGELEEQAVMLEDFSHELESTQSRLDNVMKKLAKVSHMTSDRRQWCAIAILFAVLLVVLILFLVL
notes: also called syntaxin 6
In the case of B9, in assay [2], the binding result is recorded as “binds”.
